T1: CD59 (UniProt P13987 26-102, limits assumed)
T1 construct: whole, on cells
T1 sequence (looked up): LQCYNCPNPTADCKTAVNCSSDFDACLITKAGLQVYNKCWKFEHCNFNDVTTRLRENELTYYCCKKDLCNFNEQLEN

T2: CD81 (UniProt P60033 1-236, limits assumed)
T2 construct: whole, on cells
T2 sequence (looked up): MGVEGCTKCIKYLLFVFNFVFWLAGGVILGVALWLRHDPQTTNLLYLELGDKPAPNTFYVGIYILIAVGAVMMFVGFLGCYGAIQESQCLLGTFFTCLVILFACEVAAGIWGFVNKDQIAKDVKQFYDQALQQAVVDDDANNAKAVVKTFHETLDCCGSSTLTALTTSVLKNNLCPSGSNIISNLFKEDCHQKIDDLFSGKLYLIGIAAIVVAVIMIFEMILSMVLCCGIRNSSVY

B1: Antibody of common light chain B9 (B9chicken) paired with the heavy chain against CD59 (antibody, V domains shown)
VH: AVTLDESGGGLQTPGGGLSLVCKASGFDFSSFDMVWVRQAPGKGLEWVAGISYSNTDTSYAPAVDGRATISRDNGQSTVRLQLNNLRAEDSATYYCAKSAGGCCYRADNIDAWGHGTEVIVSS
VL: ALTQPSSVSANPGETVKITCSGGGSSNYYGWYQQKSPGSAPVTLIYGTNKRPSDIPSRFSGSKSGSTGTLTITGVQADDEAVYFCGSADSSTNAGIFGAGTTLTVL
notes: also called HC-CD59
B2: Antibody of common light chain C11 (C11chicken) paired with the heavy chain against CD81 (antibody, V domains shown)
VH: AVTLDESGGGLQTPGGALSLVCKASGFSIGDYNMGWVRQAPGKGLEWVAGIDAGGGTWRATAVKGRATISRDNGQSTVRLQLNNLRAEDTATYFCAKSTDSSANCCANSIDAWGHGTEVIVSS
VL: ALTQPSSVSANPGETVKITCSGGGSWYGSYYYGWYQQKSPGSAPVTLIYNNDKRPSDIPSRFSGSESGSTATLTITGVQAEDEAVYFCGGYDSTTTDMFGAGTTLTVL
notes: also called HC-CD81
B3: Antibody of common light chain C11 (C11chicken) paired with the heavy chain against CD59 (antibody, V domains shown)
VH: AVTLDESGGGLQTPGGGLSLVCKASGFDFSSFDMVWVRQAPGKGLEWVAGISYSNTDTSYAPAVDGRATISRDNGQSTVRLQLNNLRAEDSATYYCAKSAGGCCYRADNIDAWGHGTEVIVSS
VL: ALTQPSSVSANPGETVKITCSGGGSWYGSYYYGWYQQKSPGSAPVTLIYNNDKRPSDIPSRFSGSESGSTATLTITGVQAEDEAVYFCGGYDSTTTDMFGAGTTLTVL
notes: also called HC-CD59
B4: Antibody of light chain D3 (D3chicken) paired with the heavy chain against CD81 (antibody, V domains shown)
VH: AVTLDESGGGLQTPGGALSLVCKASGFSIGDYNMGWVRQAPGKGLEWVAGIDAGGGTWRATAVKGRATISRDNGQSTVRLQLNNLRAEDTATYFCAKSTDSSANCCANSIDAWGHGTEVIVSS
VL: ALTQPSSVSANPGETVKITCSGDDRWYGWYQQKSPGSAPVTLIYSNDKRPSDIPSRFSGSKSGSTGTLTITGVQADDEAVYFCGSRDSSYAGIFGAGTTLTVL
notes: also called HC-CD81
B5: Antibody of light chain E1 (E1chicken) paired with the heavy chain against CD81 (antibody, V domains shown)
VH: AVTLDESGGGLQTPGGALSLVCKASGFSIGDYNMGWVRQAPGKGLEWVAGIDAGGGTWRATAVKGRATISRDNGQSTVRLQLNNLRAEDTATYFCAKSTDSSANCCANSIDAWGHGTEVIVSS
VL: ALTQPSSVSANPGETVKITCSGSSGSGYYGWYQQKSPGSAPVTLIYDNDKRPSDIPSRFSGSKSGSTGTLTITGVQADDEAVYFCGSADNNYTGIFGAGTTLTVL
notes: also called HC-CD81

Key:
[1] = biological target: T3, Fc-binding protein (the ZZ domain of ProA); assay: flow cytometry on cells expressing the Fc-binding ZZ domain on their surface; given as a measure of expression
T3 construct: domain: ZZ domain of ProA; the construct is not described
Source text: (§1) Antibodies were generated using the common light chains B9, F10, C11, and H11 paired with 8 different heavy chains. […] Binding is expressed as Signal:Background for binding to the molecular target of the heavy chain antibody (listed at top of Table 4). Expression is based on binding to cells expressing an Fc-binding protein (the ZZ domain of ProA) (ZZ) on their surface, enabling total antibody to bind and be measured. Detection was using flow cytometry with cells transfected to express the target protein. Background binding S:B is normalized to 1.0, using mock-transfected cells as background. The data in the table below illustrate that the light chains can be used with a variety of heavy chains and the antibody generated from a VH that can bind to the light chains B9 and F10 will function and bind to the target of interest.

[2] = biological target: T1, CD59; assay: flow cytometry on cells transfected with the target; signal over mock-transfected cells (background = 1.0)
Source text: as §1

[3] = biological target: T2, CD81; assay: as above
Source text: as §1

Row | Binder | S:B Expression [1] | S:B Binding [2] | S:B Binding [3]
1 | B1 | 11.8 S:B | 0.7 S:B | –
2 | B2 | 9.8 S:B | – | 30.9 S:B
3 | B3 | 12.2 S:B | 1.4 S:B | –
4 | B4 | 1.8 S:B | – | 1.2 S:B
5 | B5 | 1.7 S:B | – | 1.5 S:B

— patent US20200262898A1 (INTEGRAL MOLECULAR, published 2020)
